Numbering of substitutions follows the chain as printed.
T1: human ABCC4 (Homo sapiens, UniProt O15439)
T1 construct: expressed in transfected cells
T1 sequence (O15439 1-1325): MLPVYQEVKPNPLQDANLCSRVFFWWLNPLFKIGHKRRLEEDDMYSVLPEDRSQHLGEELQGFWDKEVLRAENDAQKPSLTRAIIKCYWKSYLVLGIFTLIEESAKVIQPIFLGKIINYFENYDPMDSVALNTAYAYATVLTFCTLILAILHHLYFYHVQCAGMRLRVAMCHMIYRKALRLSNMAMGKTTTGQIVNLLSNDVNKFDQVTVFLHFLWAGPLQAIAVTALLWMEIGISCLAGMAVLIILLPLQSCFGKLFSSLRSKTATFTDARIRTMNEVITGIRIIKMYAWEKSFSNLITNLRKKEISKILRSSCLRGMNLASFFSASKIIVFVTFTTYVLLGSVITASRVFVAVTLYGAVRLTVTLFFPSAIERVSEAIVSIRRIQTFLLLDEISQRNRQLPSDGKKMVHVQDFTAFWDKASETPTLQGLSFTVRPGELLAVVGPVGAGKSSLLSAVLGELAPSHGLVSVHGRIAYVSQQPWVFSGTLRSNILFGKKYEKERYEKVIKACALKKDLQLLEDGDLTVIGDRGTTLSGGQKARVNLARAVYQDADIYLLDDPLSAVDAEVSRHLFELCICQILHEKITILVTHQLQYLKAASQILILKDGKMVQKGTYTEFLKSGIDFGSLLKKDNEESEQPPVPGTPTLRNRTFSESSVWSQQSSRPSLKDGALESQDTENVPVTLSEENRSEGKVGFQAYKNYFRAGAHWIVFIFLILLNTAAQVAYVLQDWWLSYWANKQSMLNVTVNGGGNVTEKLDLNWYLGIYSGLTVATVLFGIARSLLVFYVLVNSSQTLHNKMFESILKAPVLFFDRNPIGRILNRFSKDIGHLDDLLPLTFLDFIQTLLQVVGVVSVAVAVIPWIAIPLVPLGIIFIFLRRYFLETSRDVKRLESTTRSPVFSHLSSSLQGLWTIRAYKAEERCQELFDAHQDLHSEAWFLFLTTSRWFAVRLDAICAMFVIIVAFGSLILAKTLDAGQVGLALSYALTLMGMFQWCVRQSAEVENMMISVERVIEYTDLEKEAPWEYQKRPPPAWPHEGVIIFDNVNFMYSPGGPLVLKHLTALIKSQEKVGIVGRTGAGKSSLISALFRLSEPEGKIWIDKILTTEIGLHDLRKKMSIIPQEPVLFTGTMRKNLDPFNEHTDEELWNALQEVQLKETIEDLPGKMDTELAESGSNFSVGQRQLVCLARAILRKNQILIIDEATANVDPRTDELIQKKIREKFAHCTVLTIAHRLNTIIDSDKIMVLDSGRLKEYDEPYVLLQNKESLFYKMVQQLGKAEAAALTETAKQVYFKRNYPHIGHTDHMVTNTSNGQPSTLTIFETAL

B1: C4.1073: anti-ABCC4 antibody raised in rats; VH SEQ ID NO: 24, VL SEQ ID NO: 146 (antibody, V domains shown)
VH: EVQMKESGPGLVQPSQTLSLTCTVSGFSLTSYHVHWVRQPPGKGLEWMGVMWSDGDTSYNSALKSRLSINRDTSQSRVFLKMNSLQTEDTSTYYCARDRDVLYYDGDFSPFVMDAWGQGASVTVSS
VL: DIQMTQSPSNLAASPGESVSINCKASKSISKFLAWYQQKSGKANKLLIYSASTLQSGTPSRFSGSGSGTDFTLTIRNLEPEDFGLYYCQQHNEYPLTFGSGTKLEIK
B2: C4.1143: anti-ABCC4 antibody raised in rats; VH SEQ ID NO: 31, VL SEQ ID NO: 148 (antibody, V domains shown)
VH: EVQLVESDGGLLQPGRSLKLSCAASGFTFSDFYMAWVRQAPTKGLEWIATISHDGRNTYYRDSVKGRFTISRDNAKRTLYLEMDSLRSEDTATYYCATLTTRYKGVMEAWGQGASVTVSS
VL: DVVMTQSPSHLAASPGESVSINCKASKNIYKYLAWYQQKPGKTNKLLIYSGSTLQSGTPSRFSGSGSGSDFTLTIRNLEPEDFGLYYCQHHNEYPPTFGGGTKLEIK
B3: C4.957: anti-ABCC4 antibody raised in rats; VH SEQ ID NO: 8, VL SEQ ID NO: 127 (antibody, V domains shown)
VH: EVQLKESGPGLVQPSQTLSLTCTVSGFSLTNYGVSWVRQPPGKGLEWIGAIWSGGSTGYNSALKSRLSISRDTSKSQVLLKMNSLQTEDTAMYFCARSGVEGPPFDYWGQGASVTVSS
VL: AIQVTQSPTSLSASLGDRVTLTCRASQDINNKMAWYQQKPGEVPQLLIYYASTLQSGTPSRFSGSGSGTDFSFTISHLQSEDFATYYCLQGYSLYTFGAGTKLELK
B4: C4.956: anti-ABCC4 antibody raised in rats; VH SEQ ID NO: 7, VL SEQ ID NO: 127 (antibody, V domains shown)
VH: QLKESGPGLVKPSQSLSLTCSVTGYTITSGYDWTWLRKFPGNKMEWMGYISYSGFTNYNPSLRSRISITRDTSKNQFFLQLNSVTAEDTATYFCTRTRGYNPFPYWGQGTLVTVSS
VL: B3 VL
B5: C4.1164: anti-ABCC4 antibody raised in rats; VH SEQ ID NO: 36, VL SEQ ID NO: 153 (antibody, V domains shown)
VH: EVQLVESDGGLVQPGRSLKLSCAASGFTFSDYYMAWVRQAPTKGLYWVASISYDGSTTYYRDSVKGRFTISRDNAKSTLYLQMGSLRSEDTATYYCARLSIRYKGVMDAWGRGASVTVS
VL: DIQMTQSPSNLAASPGESVSINCKASETIYKYLAWYQQKPGRTNKLLIYSGSTLQSGTPSRFSGSGSGTDFTLTIRNLEPEDFGRYYCQHHVEYPPTFGAGTKLELK
B6: C4.1075: anti-ABCC4 antibody raised in rats; VH SEQ ID NO: 25, VL SEQ ID NO: 141 (antibody, V domains shown)
VH: EVQLKESGPGLVQPSQTLSLTCTVSGLSLISSNINWVRQPPGKGLEWIGAISSGGSAFYNSALKSRLTSSRDTSKSQVFLKMNSLQTEDTAIYFCARGGSEDPDYFDYWGQGVMVTVSS
VL: DIVMTQSPSSLAVSAGETVTINCKSSQSLLYSGNQKNYLAWYQQKPGQSPKLLIYWSSTRQSGVPDRFMGSGSGTDFTLTISSVQAEDLAIYYCQQYYDTPLTFGSGTKLEIK
B7: C4.1069: anti-ABCC4 antibody raised in rats; VH SEQ ID NO: 22, VL SEQ ID NO: 144 (antibody, V domains shown)
VH: GLVQPSQTLSLTCTVSGFSLNSNGVSWVRQPPGKGLEWIVEISSGGSAFYNSALKSRLSISRDTSKSQVFLKMNSLQTEDTAIYFCTRGGTEDPDYFDYWGQGASVTVSS
VL: B6 VL with M4L, K45T, S57A, M69I, T78I, S82T, L102V, I112L
B8: C4.970: anti-ABCC4 antibody raised in rats; VH SEQ ID NO: 10, VL SEQ ID NO: 131 (antibody, V domains shown)
VH: EVQLVESGPGLVQPSQTLSLTCTVAGFSLTSYNVHWVRQPPGKGLEWMGVIWNTGDTRYDSALKSRLSISKDTSKSQVFLNMNSLQTEDTATYYCARDDNVYYGMHAMDAWGQGASVTVSS
VL: DIKMIQSPSSLSASLGERVTISCRASENINNYLSWYQKKEDGSVKLLIYHTSRLQPGAPSRFSGSGSGKDYSLTISGLDSEDIATYYCQQGYTPPTFGAGTKLELK

The molecules below were run against T1, human ABCC4 (assay: Flow cytometry (FACS) binding to C6 cells stably transfected to express human ABCC4 (different experiment, Table 4)). Details: C6 cells stably transfected to express human ABCC4, FACS; different experiment, Table 4.
Procedure: (§1) Binding titration of recombinant antibodies to ABCC4 transfectants was performed by serial dilution of antibodies from about 666 nM. Diluted antibody in flow cytometry buffer was incubated with cells on ice for 30 min. After 2 washes with flow cytometry buffer, bound antibody was detected with PE-labeled F(ab′)2 fragment goat anti-human IgG (Jackson ImmunoResearch) diluted 1:200 in flow cytometry buffer and incubated with cells for 20 min on ice. After 2 washes with flow cytometry buffer fluorescence was measured on an Attune N×T flow cytometer. Data were analyzed with GraphPad Prism 8.0 software to determine EC50's.
(§2) Human embryonic kidney HEK 293T cells and murine C6 (ATCC CCL-107) were transfected with human or cynomolgus ABCC4 cDNA with C-terminal fused FLAG tag in a pMONO-hygro vector with Lipofectamine 3000 (Invitrogen #L3000001). The cells were treated with 0.2 mg/ml and 0.5 mg/ml hygromycin respectively for about 2 weeks while cultivated in DMEM and 10% FBS with 0.2 mg/ml hygromycin and 0.5 mg/ml hygromycin, respectively. The cells were washed with PBS, and stained with […] of anti-FLAG-PE after fixing and permeablization. Clones expressing ABCC4 were single-cell sorted into 200 μl DMEM with 10% FBS using a BD Aria FACS machine and cultivated in 96 well plates using standard techniques in an incubator at 37° C. and 5% CO 2. Two weeks later clones expressing high levels of ABCC4 were screened and amplified.
(§3) Antibody binding to cells was evaluated by flow cytometry. Murine C6 cells stably transfected to express human or cynomolgus ABCC4 were washed once in flow cytometry buffer (PBS+2% FBS+0.02% sodium azide), resuspended at 2×10^6 cells/mL in flow cytometry buffer, and dispensed into 96-well microtiter plates at 0.1 mL/well. Recombinant antibodies were added to cells at 5 ug/mL for initial binding confirmation, or serially diluted from 100 ug/mL in flow cytometry buffer. After incubating cells on ice for 30 min, cells were washed twice with flow cytometry buffer. Bound antibody was detected with PE-labeled F(ab′)2 fragment goat anti-human IgG (Jackson ImmunoResearch) and evaluated on an Attune N×T flow cytometer. EC50 is calculated to be the concentration of antibody that gives half maximal response.
(§4) In a different experiment, using a different C6.cC4 cell line, detecting the binding of anti-ABCC4 antibodies to C6 cells stably transfected to express human ABCC4 measured by FACS and to C6 cells stably transfected to express cynomolgus ABCC4 measured by FACS, the results set forth in Table 4 were obtained. Negative (−)=Rmax (MFI) below background level. Positive (+)=MFI>3× background level.

| Human ABCC4 binding | Molecule |
| --- | --- |
| + (Positive (+)=MFI>3× background level) | B1 |
| + (Positive (+)=MFI>3× background level) | B2 |
| + (Positive (+)=MFI>3× background level) | B3 |
| + (Positive (+)=MFI>3× background level) | B4 |
| + (Positive (+)=MFI>3× background level) | B5 |
| + (Positive (+)=MFI>3× background level) | B6 |
| + (Positive (+)=MFI>3× background level) | B7 |
| + (Positive (+)=MFI>3× background level) | B8 |

Same assay, conditions: Table 4 study, stated in words

| binding to human ABCC4 expressed on cell surface | Molecule |
| --- | --- |
| bind to both human and cynomolgus ABCC4 | B1 |
| bind to both human and cynomolgus ABCC4 | B2 |
| bind to both human and cynomolgus ABCC4 | B3 |
| bind to both human and cynomolgus ABCC4 | B5 |
| bind to both human and cynomolgus ABCC4 | B6 |
| bind to both human and cynomolgus ABCC4 | B7 |

The molecules below were run on cynomolgus ABCC4 (assay: Flow cytometry (FACS) binding to C6 cells stably transfected to express cynomolgus ABCC4 (different experiment, different C6.cC4 cell line, Table 4)). Details: Table 4 study, stated in words.
Set-up: key to Cynomolgus ABCC4 binding: Negative (−)=Rmax (MFI) below background level; Positive (+)=MFI>3× background level
Procedure: as §1, §2, §3, §4

| Molecule | binding to cynomolgus ABCC4 expressed on cell surface |
| --- | --- |
| B1 | bind to both human and cynomolgus ABCC4 |
| B2 | bind to both human and cynomolgus ABCC4 |
| B3 | bind to both human and cynomolgus ABCC4 |
| B5 | bind to both human and cynomolgus ABCC4 |
| B6 | bind to both human and cynomolgus ABCC4 |
| B7 | bind to both human and cynomolgus ABCC4 |

Same assay, conditions: different C6.cC4 cell line, C6 cells stably transfected to express cynomolgus ABCC4, FACS; Table 4

| Molecule | Cynomolgus ABCC4 binding |
| --- | --- |
| B1 | + (Positive (+)=MFI>3× background level) |
| B2 | + (Positive (+)=MFI>3× background level) |
| B3 | + (Positive (+)=MFI>3× background level) |
| B4 | − |
| B5 | + (Positive (+)=MFI>3× background level) |
| B6 | + (Positive (+)=MFI>3× background level) |
| B7 | + (Positive (+)=MFI>3× background level) |
| B8 | − |
